Assay results: patent US8679540B2, “Pharmaceutical formulations for the prolonged release of active principle(s), and their applications, especially therapeutic applications” (Flamel Technologies, priority 2006, dated 2014)

Key:
[1] = Pharmacokinetics of hGH in the dog after subcutaneous injection of nanoparticle and microparticle formulations (Example 12); format: in vivo, beagle dogs; conditions: 1 mg/kg hGH
Experimental: (§1) Twelve naïve beagle dogs (weighing 7 to 10 kg) were treated with the following formulations:
The hGH IR corresponds to a solution of recombinant human growth hormone ([hGH]=4 mg/ml, pH=7.2, 330 mOsm).
Formulation 1 is prepared according to Example 2 and formulation 2 according to Example 7. The hGH is assayed by ELISA (DSL 10-1900 kit).
where: • Cmax is the maximum serum hGH concentration, • T>5 ng/ml is the time when the serum hGH concentration is greater than 5 ng/ml, • AUC represents the area under the curve of serum hGH concentration as a function of time, • RBA represents the bioavailability relative to an Immediate-Release formulation, • T50% auc represents the time required to release 50% of the total hGH released.

[2] = Pharmacokinetics of hGH in the dog after subcutaneous injection of a microparticle formulation (Example 13); format: in vivo, beagle dogs; conditions: hGH IR 5 × 0.1 mg/kg per day, Formulation 3 0.5 mg/kg
Experimental: as §1
The hGH IR corresponds to a solution of recombinant human growth hormone ([hGH]=4.1 mg/ml, pH=7.2, 330 mOsm). Formulation 3 is prepared according to Example 9.

Substance: hGH IR: solution of recombinant human growth hormone, immediate-release reference
- RBA (bioavailability relative to an Immediate-Release formulation) [1]: 100%
- T50% auc ± SD (time required to release 50% of the total hGH released) [1]: 4 ± 1 h
- T > 5 ng/ml ± SD (time when serum hGH concentration is greater than 5 ng/ml) [1]: 18 ± 3 h
- apparent T½ (elimination) [1]: about 2 hours
- median time to reach maximum serum concentration [1]: 2 h
- time beyond which circulating hGH is no longer quantifiable [1]: 24 h
- AUC0-last ± SD ([1]; serum hGH): 3209 ± 276 ng·h/mL
- Cmax ± SD (maximum serum hGH concentration) ([1]; serum, ELISA, 1 mg/kg): 582 ± 155 ng/mL
- AUC0-last ± SD [2]: 258 ± 26 ng·h/mL
- Cmax ± SD (maximum serum hGH concentration) [2]: 90 ± 24 ng/mL
- RBA (bioavailability relative to an Immediate-Release formulation) [2]: 100%
- T50% auc ± SD [2]: 2 ± 0.3 h
- T > 1 ng/ml ± SD [2]: 39 h
